# Test results: patent US20200087347 (published 2020)
# Where no end group is shown, it is not given here. Side-chain parts run from the residue outwards. [ ]: non-standard residue; d: D form. The star is where a group is joined. BODIPY(FL) = CC1=CC(C)=[N+]2C1=Cc1ccc(CCC(=O)*)n1[B-]2(F)F; NMeK = CN[C@@H](CCCCN)C(=O)O; Ahx = NCCCCCC(=O)O; BDPFL = dye
# Columns and labels:
# Assay in all cases: competition
# integrin αIIbβ3 = integrin αIIbβ3 (human, UniProt P08514)
# integrin αvβ8 = target: T1, integrin αvβ8 (human, UniProt P06756)
# T1 chain 1: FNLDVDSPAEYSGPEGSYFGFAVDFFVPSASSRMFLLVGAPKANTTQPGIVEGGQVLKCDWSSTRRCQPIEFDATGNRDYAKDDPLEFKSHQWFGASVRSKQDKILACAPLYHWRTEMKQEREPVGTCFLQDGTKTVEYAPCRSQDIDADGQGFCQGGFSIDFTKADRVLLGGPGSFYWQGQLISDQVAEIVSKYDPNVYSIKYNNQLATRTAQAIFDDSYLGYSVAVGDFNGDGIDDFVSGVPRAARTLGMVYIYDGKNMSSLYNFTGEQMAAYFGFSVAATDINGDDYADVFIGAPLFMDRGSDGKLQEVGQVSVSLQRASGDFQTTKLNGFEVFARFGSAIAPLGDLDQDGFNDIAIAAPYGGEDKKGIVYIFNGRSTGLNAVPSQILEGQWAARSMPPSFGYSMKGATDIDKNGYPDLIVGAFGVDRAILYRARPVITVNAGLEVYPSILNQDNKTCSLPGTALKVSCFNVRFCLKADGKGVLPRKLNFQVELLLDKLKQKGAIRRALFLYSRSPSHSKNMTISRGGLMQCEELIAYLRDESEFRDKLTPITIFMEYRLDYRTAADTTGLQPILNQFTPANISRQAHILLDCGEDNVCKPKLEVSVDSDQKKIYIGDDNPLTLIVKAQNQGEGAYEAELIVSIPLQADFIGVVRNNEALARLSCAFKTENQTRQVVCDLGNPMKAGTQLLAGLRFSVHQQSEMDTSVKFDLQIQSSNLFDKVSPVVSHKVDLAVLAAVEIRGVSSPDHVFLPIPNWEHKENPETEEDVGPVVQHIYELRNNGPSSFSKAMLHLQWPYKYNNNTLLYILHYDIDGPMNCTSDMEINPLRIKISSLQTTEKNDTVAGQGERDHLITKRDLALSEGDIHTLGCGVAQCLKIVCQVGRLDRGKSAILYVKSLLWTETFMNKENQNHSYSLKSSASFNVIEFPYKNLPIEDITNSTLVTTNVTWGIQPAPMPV
# T1 chain 2: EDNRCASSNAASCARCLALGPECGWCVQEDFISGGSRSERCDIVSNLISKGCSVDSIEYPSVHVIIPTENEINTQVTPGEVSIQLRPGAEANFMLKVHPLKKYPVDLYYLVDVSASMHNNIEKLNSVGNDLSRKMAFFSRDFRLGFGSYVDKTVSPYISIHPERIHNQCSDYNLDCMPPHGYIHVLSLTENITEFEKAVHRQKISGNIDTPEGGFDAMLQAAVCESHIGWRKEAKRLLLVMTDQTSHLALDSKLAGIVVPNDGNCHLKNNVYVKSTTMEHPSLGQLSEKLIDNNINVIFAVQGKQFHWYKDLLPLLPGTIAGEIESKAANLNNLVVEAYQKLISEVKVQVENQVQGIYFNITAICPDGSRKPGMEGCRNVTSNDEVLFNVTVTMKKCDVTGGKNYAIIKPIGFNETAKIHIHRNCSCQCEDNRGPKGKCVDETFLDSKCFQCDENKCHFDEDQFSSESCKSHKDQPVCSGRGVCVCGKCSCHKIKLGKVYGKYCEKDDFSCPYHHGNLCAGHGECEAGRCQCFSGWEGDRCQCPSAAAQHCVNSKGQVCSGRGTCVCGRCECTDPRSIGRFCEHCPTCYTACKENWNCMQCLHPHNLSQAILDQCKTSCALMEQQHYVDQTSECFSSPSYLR
# integrin αvβ6 = target: T2, integrin αvβ6 (human, UniProt P06756)
# T2 chain 1: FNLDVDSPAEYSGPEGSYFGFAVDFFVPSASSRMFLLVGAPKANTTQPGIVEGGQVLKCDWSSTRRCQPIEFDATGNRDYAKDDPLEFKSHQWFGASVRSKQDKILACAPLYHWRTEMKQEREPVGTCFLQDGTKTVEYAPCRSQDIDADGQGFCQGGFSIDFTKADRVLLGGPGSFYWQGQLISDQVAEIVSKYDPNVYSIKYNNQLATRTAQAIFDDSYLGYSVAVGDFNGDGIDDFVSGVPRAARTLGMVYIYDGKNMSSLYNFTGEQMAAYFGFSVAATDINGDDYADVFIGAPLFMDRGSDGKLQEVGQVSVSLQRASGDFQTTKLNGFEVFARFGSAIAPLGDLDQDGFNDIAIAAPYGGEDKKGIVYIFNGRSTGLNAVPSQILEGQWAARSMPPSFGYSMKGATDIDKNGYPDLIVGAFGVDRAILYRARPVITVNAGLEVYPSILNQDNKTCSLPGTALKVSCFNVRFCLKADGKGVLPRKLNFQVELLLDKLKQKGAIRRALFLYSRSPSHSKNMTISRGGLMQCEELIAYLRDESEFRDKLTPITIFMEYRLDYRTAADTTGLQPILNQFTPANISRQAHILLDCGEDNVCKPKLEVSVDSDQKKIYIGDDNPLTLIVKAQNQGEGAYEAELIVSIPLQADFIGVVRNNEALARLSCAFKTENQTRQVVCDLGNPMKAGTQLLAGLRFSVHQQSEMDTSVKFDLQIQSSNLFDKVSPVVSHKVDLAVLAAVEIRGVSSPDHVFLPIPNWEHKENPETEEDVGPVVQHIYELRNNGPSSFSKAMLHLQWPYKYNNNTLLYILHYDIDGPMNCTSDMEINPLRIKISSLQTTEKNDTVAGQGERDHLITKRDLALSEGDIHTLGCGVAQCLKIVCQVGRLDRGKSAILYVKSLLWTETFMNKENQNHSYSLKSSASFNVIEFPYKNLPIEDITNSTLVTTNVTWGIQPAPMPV
# T2 chain 2: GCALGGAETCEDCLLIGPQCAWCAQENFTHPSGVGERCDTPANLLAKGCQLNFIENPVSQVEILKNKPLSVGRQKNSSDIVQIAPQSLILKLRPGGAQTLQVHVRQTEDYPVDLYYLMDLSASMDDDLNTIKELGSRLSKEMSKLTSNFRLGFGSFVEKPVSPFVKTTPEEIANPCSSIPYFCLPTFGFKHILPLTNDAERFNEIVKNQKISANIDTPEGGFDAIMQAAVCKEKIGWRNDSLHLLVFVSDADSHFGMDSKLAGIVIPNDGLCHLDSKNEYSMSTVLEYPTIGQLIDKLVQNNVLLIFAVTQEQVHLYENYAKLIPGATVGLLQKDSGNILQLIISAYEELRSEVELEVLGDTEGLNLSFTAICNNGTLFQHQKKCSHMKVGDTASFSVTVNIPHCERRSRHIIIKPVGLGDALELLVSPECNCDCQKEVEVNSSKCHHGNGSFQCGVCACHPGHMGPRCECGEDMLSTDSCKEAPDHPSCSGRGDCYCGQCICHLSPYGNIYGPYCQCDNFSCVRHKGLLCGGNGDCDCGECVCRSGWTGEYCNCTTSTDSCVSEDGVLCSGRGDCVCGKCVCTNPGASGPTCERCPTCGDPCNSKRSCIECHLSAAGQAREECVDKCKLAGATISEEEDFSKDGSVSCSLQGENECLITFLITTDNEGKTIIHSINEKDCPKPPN
# integrin αvβ5 = target: T3, integrin αvβ5 (human, UniProt P06756)
# T3 chain 1: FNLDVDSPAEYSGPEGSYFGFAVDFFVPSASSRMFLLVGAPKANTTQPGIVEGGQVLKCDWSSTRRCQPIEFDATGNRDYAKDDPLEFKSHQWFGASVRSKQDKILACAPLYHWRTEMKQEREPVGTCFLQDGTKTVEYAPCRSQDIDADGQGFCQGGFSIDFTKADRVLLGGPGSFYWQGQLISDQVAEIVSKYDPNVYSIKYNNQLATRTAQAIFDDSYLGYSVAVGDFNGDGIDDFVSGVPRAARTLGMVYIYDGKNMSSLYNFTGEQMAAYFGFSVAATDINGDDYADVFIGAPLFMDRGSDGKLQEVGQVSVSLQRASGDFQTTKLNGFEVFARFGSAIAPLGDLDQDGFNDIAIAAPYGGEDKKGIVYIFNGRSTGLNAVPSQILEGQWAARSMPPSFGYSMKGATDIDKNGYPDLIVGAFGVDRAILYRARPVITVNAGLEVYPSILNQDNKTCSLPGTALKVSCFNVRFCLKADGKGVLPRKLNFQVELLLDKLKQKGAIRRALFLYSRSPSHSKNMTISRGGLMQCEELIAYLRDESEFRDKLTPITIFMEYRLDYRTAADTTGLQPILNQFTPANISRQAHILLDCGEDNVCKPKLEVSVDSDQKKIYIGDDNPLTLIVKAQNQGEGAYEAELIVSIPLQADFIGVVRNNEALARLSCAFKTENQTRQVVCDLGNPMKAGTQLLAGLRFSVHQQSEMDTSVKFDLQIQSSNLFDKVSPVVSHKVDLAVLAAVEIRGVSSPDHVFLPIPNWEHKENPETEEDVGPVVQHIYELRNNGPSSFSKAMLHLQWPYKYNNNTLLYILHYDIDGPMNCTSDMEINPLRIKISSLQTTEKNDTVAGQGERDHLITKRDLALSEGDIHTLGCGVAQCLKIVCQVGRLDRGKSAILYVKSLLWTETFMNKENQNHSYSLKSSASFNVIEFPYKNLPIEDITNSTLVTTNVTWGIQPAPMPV
# T3 chain 2: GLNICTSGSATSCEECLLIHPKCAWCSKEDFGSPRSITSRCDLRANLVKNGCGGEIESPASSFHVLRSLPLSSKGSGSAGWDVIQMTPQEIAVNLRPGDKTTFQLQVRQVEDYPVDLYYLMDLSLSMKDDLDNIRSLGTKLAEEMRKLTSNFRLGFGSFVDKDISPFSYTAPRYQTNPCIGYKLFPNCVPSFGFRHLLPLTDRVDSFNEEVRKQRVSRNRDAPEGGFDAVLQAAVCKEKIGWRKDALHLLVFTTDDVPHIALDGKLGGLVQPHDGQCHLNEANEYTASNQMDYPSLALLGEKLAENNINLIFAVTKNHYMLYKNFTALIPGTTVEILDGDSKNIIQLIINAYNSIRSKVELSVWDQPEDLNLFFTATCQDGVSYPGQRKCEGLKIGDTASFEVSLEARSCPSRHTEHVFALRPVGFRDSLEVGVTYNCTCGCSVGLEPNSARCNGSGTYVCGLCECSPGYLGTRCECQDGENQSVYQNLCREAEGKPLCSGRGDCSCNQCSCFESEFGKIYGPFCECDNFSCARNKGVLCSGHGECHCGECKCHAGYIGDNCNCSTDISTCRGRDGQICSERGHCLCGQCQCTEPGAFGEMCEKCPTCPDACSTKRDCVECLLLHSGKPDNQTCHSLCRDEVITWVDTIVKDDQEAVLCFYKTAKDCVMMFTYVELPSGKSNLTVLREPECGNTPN
# integrin α5β1 = integrin α5β1 (human, UniProt P08648)
# integrin α5β1, sequence (P08648 42-1049, chain 1 of 2): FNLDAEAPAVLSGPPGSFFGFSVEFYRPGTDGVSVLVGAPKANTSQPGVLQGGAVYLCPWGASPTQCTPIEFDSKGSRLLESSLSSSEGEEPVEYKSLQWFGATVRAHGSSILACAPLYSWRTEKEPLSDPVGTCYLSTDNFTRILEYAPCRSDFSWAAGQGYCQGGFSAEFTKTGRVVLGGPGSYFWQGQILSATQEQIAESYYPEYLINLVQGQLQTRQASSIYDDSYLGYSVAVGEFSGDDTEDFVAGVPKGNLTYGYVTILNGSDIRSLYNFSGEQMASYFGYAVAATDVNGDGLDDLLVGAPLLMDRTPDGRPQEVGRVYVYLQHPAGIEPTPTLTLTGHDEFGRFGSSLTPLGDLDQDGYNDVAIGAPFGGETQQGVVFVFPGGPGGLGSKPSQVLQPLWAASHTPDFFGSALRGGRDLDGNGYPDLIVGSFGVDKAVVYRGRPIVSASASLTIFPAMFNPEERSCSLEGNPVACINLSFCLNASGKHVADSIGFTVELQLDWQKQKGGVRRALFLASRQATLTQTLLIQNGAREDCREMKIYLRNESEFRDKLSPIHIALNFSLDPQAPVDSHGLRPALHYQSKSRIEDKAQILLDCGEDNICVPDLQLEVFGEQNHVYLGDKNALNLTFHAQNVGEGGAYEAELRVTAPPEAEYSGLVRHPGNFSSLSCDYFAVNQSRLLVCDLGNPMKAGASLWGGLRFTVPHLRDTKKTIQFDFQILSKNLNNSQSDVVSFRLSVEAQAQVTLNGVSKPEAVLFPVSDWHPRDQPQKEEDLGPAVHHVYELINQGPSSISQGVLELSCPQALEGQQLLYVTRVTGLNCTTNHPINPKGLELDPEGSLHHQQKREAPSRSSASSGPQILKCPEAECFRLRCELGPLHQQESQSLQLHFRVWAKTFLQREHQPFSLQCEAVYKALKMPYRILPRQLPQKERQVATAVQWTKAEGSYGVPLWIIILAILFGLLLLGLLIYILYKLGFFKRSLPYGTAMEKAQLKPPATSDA
# integrin α5β1, sequence (chain, as listed by the source, chain 2 of 2): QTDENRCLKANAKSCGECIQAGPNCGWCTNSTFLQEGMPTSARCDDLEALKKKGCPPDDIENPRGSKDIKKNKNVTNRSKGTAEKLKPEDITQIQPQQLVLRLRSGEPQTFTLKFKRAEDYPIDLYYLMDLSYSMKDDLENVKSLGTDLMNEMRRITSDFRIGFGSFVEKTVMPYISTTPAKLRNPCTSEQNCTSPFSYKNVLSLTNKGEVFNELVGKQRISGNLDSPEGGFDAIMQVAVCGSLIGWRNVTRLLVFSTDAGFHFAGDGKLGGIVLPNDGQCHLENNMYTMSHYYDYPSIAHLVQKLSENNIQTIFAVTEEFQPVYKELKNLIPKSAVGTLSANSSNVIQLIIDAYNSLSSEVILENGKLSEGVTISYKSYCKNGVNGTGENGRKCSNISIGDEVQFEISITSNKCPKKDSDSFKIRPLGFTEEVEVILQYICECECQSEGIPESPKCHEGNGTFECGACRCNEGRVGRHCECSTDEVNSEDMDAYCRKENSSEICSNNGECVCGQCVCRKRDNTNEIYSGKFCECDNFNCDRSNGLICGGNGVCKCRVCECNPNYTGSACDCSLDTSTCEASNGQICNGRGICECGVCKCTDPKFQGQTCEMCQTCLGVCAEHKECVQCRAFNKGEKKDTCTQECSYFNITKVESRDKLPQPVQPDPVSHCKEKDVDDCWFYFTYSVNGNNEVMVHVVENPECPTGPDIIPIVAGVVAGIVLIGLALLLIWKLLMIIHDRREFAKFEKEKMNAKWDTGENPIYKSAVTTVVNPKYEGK
# integrin αvβ3 = target: T4, integrin αvβ3 (human, UniProt P06756)
# T4 chain 1: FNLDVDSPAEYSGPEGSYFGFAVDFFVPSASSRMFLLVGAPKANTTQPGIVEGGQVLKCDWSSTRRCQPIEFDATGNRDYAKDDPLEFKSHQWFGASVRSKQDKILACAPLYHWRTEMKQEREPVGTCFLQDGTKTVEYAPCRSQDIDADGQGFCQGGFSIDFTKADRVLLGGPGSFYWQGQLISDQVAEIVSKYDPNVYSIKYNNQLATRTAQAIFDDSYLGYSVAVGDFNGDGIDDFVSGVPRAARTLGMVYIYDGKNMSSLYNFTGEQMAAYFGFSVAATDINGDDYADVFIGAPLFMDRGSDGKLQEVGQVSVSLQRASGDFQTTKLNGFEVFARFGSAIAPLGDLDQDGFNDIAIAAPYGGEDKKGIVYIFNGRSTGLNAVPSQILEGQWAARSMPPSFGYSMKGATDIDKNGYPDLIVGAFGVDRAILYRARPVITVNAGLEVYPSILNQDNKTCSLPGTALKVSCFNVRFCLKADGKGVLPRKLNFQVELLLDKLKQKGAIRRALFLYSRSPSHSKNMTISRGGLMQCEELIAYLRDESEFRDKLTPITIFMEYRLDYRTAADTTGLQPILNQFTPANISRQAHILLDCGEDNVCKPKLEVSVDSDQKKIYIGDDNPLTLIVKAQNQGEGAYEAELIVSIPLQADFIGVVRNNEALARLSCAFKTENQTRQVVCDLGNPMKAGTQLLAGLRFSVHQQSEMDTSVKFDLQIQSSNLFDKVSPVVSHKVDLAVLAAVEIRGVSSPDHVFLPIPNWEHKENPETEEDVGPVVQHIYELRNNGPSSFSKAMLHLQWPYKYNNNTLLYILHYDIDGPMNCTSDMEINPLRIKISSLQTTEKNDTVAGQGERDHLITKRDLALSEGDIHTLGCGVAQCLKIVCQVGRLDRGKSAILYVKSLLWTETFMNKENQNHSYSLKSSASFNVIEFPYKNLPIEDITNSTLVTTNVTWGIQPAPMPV
# T4 chain 2: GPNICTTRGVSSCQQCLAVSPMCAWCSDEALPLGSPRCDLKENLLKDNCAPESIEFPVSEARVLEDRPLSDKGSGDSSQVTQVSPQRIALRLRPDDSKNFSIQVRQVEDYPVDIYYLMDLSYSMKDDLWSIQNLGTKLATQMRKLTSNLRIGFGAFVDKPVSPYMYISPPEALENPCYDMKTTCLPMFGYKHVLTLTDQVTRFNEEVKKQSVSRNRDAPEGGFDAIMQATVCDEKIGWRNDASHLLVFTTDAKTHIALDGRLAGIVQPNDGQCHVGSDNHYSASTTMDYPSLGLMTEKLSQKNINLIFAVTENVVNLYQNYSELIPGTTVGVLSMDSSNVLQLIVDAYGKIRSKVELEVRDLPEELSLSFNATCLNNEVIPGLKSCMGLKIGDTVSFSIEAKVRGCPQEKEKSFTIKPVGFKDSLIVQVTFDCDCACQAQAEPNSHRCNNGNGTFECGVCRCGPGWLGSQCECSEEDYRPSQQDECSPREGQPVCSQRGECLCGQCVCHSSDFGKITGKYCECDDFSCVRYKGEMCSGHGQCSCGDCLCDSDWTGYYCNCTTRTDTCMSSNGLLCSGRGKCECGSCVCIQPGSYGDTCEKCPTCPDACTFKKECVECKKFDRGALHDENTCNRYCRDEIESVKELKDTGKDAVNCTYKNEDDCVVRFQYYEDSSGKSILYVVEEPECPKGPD
Binder,IC50 (integrin αIIbβ3),IC50 (integrin αvβ8),IC50 (integrin αvβ6),IC50 (integrin αvβ5),IC50 (integrin α5β1),IC50 (integrin αvβ3)
cyclo(RGDL[dP][NMeK]([Ahx-BDPFL])GL) [Compound 9b (9-Ahx-BDPFL)],> 1000 nM,0.87 nM,55 nM,> 10000 nM,> 1000 nM,239 nM
"RGDL[dP][NMeK]([(PEG)5-BODIPY(FL)])GL (not fully specified (bridges); also: cyclic, closure not given here) [Compound 9d (9-(PEG)5-BDPFL)]",–,1.25 nM,247 nM,> 10000 nM,95 nM,98 nM
